Laboratory results reported in paper PMC2151085 (PLoS Pathogens, 2007).

Key:
[1] = target: ALV-A Env surface subunit (SU), wild type, on virus particles (avian leukosis virus-A (ALV-A)) (UniProt P0DTM4)
[2] = target: the molecule itself; assay: SDS-resistant oligomer by SDS-PAGE and immunoblot

Chain of ALV-A Env surface subunit (SU), wild type, on virus particles (avian leukosis virus-A (ALV-A)) (P0DTM4 63-401): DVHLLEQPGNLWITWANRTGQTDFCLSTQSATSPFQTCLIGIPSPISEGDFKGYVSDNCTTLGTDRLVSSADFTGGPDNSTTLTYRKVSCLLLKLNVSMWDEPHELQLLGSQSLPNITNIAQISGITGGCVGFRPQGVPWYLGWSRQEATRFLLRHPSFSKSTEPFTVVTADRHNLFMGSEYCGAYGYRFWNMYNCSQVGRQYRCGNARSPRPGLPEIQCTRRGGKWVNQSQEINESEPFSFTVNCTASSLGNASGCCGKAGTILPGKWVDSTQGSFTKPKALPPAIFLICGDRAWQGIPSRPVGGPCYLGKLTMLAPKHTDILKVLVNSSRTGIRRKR

Molecule	infection of 293-Tva cells by ALV-A particles exposed to PMB (10 mM) in the presence of sTva (10 uM) [1]	stoichiometry N [2]
sTva, a functional isoform of the ALV-A receptor lacking the transmembrane domain	> 99%	–
ALV-A Env transmembrane subunit (TM), on virus particles (natural protein) STSHLDDTCSDEVQLWGPTARIFASILAPGVARAQALREIERLACWSVKQANLTTSFLGDLLDDVTSIRHAVLQNRAAIDFLLLAHGHGCEDVAGMCCFNLSDHSESIQKKFQLMKEHVNKIGVDSDPIGSWLRGLFGGIGEWAVHLLKGLLLGLVVILLLVVCLPCLLQIVCGNIRKMINNSISYHTEYKKLQKACGQPESRIV	–	3
